According to US20210205211A1, “PERCUTANEOUS ABSORPTION PREPARATION” (KYUSHU UNIVERSITY, NATIONAL UNIVERSITY CORPORATION, priority 2018, published 2021):
Residues, ends and D or L forms follow the SMILES beside them.

B1: Ovalubumin: Ovalbumin (OVA), 45 kDa, labeled with FITC; model hydrophilic drug (protein, UniProt P01012 2-386, looked up)
Ovalbumin: GSIGAASMEFCFDVFKELKVHHANENIFYCPIAIMSALAMVYLGAKDSTRTQINKVVRFDKLPGFGDSIEAQCGTSVNVHSSLRDILNQITKPNDVYSFSLASRLYAEERYPILPEYLQCVKELYRGGLEPINFQTAADQARELINSWVESQTNGIIRNVLQPSSVDSQTAMVLVNAIVFKGLWEKAFKDEDTQAMPFRVTEQESKPVQMMYQIGLFRVASMASEKMKILELPFASGTMSMLVLLPDEVSGLEQLESIINFEKLTEWTSSNVMEERKIKVYLPRMKMEEKYNLTSVLMAMGITDVFSSSANLSGISSAESLKISQAVHAAHAEINEAGREVVGSAEAGVDAASVSEEFRADHPFLFCIKHIATNAVLFFGRCVSP
modifications: FITC
notes: Ovalbumin (OVA), 45 kDa, labeled with FITC; model hydrophilic drug

How the values were obtained:
[1] = no method given; cited from earlier work
[2] = In vitro skin permeability test of hydrophilic polymers in S/O-S formulation containing MGOL-70 (Example 6); details: for Skin permeation amount of S/O-S preparation: 1 mg/mL hydrophilic polymer S/O-S formulation in IPM containing 25 mg/mL MGOL-70; for Skin permeation amount of S/O-S preparation / Skin permeation amount of PBS solution: YMP skin, 24 hours, 32° C.; for Enhancement effect: S/O-S preparation versus PBS solution; for Skin permeation amount of PBS solution: hydrophilic polymer in PBS solution
[3] = Measurement of zeta potential by electrophoretic light scattering; assay type: physicochemical; details: 1 mg in 1 mL PBS solution, 25° C., Zetasizer Nano ZS
Description: In each 1 mL of a PBS solution was dissolved 1 mg of a part (7 kinds) of the various kinds of hydrophilic polymers shown in the above-mentioned Table 1, and a zeta potential was measured by an electrophoretic light scattering method at 25° C. using Zetasizer Nano ZS (Malvern Panalytical Ltd.).

[4] = In vitro skin permeability test of OVA S/O-S formulations with various base oils (Example 8); assay type: in vitro ADME, Yucatan micropig; details: for Average skin permeation amount: Yucatan micropig, pig, 24 h
[5] = In vitro skin permeability test of OVA versus concentration of permeation enhancing substance (Example 3); details: S/O-S formulation 1 mg/mL OVA in IPM; enhancer solutions of 2, 10, 50 or 100 mg/mL mixed 1:1; 24 hours
[6] = In vitro skin permeability test of OVA with glyceryl monooleate/glyceryl monolinoleate (Example 11); assay type: in vitro ADME; details: OVA S/O-S in IPM; HR-1 mouse skin, 4 hours
Description: Glyceryl monooleate and glyceryl monolinoleate were dissolved in IPM with the composition shown in the following Table 7 to prepare Formulation 2.
Formulation 1 and Formulation 2 were mixed with a volume ratio of 1:1, and used in the following skin permeability test.
After 4 hours, the receiver phase was recovered, and the amount of the FITC-OVA permeated through the skin was quantified by using a plate reader.

[7] = In vitro skin permeability test of CMAP peptide S/O-S formulations with various oily bases (Example 1); assay type: in vitro ADME, Yucatan micropig

Row | Molecule | pI [1] | Skin permeation amount of S/O-S preparation [2] [μg/cm^2] | Enhancement effect [2] [fold] | Skin permeation amount of PBS solution [2] [μg/cm^2] | ζ potential [3] [mV] | other results
1 | Bovin serum albumin: Bovine serum albumin, 66.5 kDa, FITC-label | 4.7 | 32.1 | 8.9 | 3.6 | −16.7 | 
2 | Cholera toxin subunit B | 6.6 | 39.4 | 4.0 | 9.8 | −3.29 | 
3 | Green fluorescent protein | 6.1 | 35.0 | 8.4 | 4.2 | −9.52 | state of the protein permeated into the skin ([2]; quantified by own fluorescence (GFP) or peroxidase activity (HRP) in skin extract): could be permeated into the skin without being denatured
4 | CCCCCCCCCCCCCC(=O)OC(C)C [Isopropyl myristate, isopropyl myristate] |  |  |  |  |  | skin permeation effect of OVA by oily base [4]: high skin permeation effect; Average skin permeation amount [4]: 44.3 μg/cm^2
5 | CCCCCCCC/C=C\CCCCCCCC(=O)OCC(O)CO (stereo not drawn) [MGOL-70, glyceryl monooleate] |  |  |  |  |  | tendency of the enhancing substance on percutaneous permeation of OVA [5]: tend to enhance it
6 | CCCCC/C=C\C/C=C\CCCCCCCC(=O)OCC(O)CO (stereo not drawn) [glyceryl monolinoleate] |  |  |  |  |  | skin permeation amount of the drug with increase in the addition ratio [6]: the skin permeation amount of the drug was increased
7 | Lysozyme: Lysozyme, 14.3 kDa, FITC-label | 11 | 6.0 | 1.5 | 4.0 | 8.84 | 
8 | CCCCCCCC/C=C\CCCCCCCC(=O)O [oleic acid] |  |  |  |  |  | enhancing effect of percutaneous permeation (amount of skin permeation of the CMAP peptide) [7]: high enhancing effect of percutaneous permeation
9 | CC(C)CCCC(C)CCCC(C)CCCCC(C)CCCC(C)CCCC(C)C (stereo not drawn) [Squalane, squalane] |  |  |  |  |  | skin permeation effect of OVA by oily base [4]: high skin permeation effect; Average skin permeation amount [4]: 40.8 μg/cm^2
10 | CC(C)C[C@H](NC(=O)[C@H](CCC(=O)O)NC(=O)[C@H](CCC(=O)O)NC(=O)[C@@H](NC(=O)[C@H](Cc1ccc(O)cc1)NC(=O)[C@@H](NC(=O)[C@H](CCCNC(=N)N)NC(=O)[C@H](CC(C)C)NC(=O)[C@@H]1CCCN1C(=O)[C@H](C)NC(=O)[C@H](CO)NC(=O)[C@H](CCC(N)=O)NC(=O)[C@H](C)NC(=O)[C@H](CC(=O)O)NC(=O)[C@H](CC(C)C)NC(=O)[C@@H](N)CC(C)C)C(C)C)C(C)C)C(=O)N[C@@H](CCCCN)C(=O)N1CCC[C@H]1C(=O)O [Peptide (CMAP, from Beta-lactoglobulin)] (H-LLDAQSAPLRVYVEELKP-OH; N-terminus and C-terminus assumed) |  | 11.1 | 15 | 1.30 |  | 
11 | B1 | 4.9 | 12.5 | 30 | 0.41 | −12.80 | 
